Data on 1 molecule can be found in patent US7588931B2, “High arachidonic acid producing strains of Yarrowia lipolytica” (E. I. du Pont de Nemours and Company, priority 2004, dated 2009).

For the experiment, the system named is Yarrowia lipolytica strain ATCC #76982(Leu-). Nature of the experiment: EDA substrate feeding of Y. lipolytica expressing codon-optimized Δ8 desaturase genes. It is filed as cell-based. The note with it: MM containing 10 μg of EDA substrate, about 24 hr at 30° C. The method, then:
Yarrowia lipolytica strain ATCC #76982(Leu-) was transformed with pDMW240 (FIG. 8D) and pDMW255, respectively, as described in the General Methods. Yeast containing the recombinant constructs were grown in MM supplemented with EDA [20:2(11,14)]. Specifically, single colonies of transformant Y. lipolytica containing either pDMW240 (containing D8S-1) or pDMW255 (containing D8S-2) were grown in 3 mL MM at 30° C. to an OD600˜1.0. For substrate feeding, 100 μl of cells were then subcultured in 3 mL MM containing 10 μg of EDA substrate for about 24 hr at 30° C. The cells were collected by centrifugation, lipids were extracted, and fatty acid methyl esters were prepared by trans-esterification, and subsequently analyzed with a Hewlett-Packard 6890 GC.
A three amino acid difference between the protein sequence of the Δ8 desaturase deposited in GenBank (Accession No. AAD45877 [SEQ ID NO:43]) and in WO 00/34439 or Wallis et al. (Archives of Biochem. Biophys, 365:307-316 (1999)) (SEQ ID NO:252 herein) was found. Specifically, three amino acids appeared to be missing in GenBank Accession No. […]. […]

B1: D8S-3: synthetic Δ8 desaturase gene in pDMW261, SEQ ID NO:255 (protein)
chain: MKSKRQALSPLQLMEQTYDVSAWVNFHPGGAEIIENYQGRDATDAFMVMHFQEAFDKLKRMPKINPSFELPPQAAVNEAQEDFRKLREELIATGMFDASPLWYSYKISTTLGLGVLGYFLMVQYQMYFIGAVLLGMHYQQMGWLSHDICHHQTFKNRNWNNLVGLVFGNGLQGFSVTCWKDRHNAHHSATNVQGHDPDIDNLPPLAWSEDDVTRASPISRKLIQFQQYYFLVICILLRFIWCFQCVLTVRSLKDRDNQFYRSQYKKEAIGLALHWTLKALFHLFFMPSILTSLLVFFVSELVGGFGIAIVVFMNHYPLEKIGDPVWDGHGFSVGQIHETMNIRRGIITDWFFGGLNYQIEHHLWPTLPRHNLTAVSYQVEQLCQKHNLPYRNPLPHEGLVILLRYLAVFARMAEKQPAGKAL
modifications: D8S-3: synthetic delta 8-desaturase gene codon-optimized for Yarrowia lipolytica in pDMW261
As to B1, the “desaturation of EDA to DGLA” value is “No desaturation of EDA to DGLA was observed”.
